Test results reported in patent US20240327497A1.
Values joined by “and” are separate entries in the source; they are usually repeats but may differ in a detail not shown here. Equal entries are not always repeated.

Experiments:
[1] = biological target: canine FcRn (FcRn large subunit with canine beta-2-microglobulin) (canine); assay: SPR pH 5.5, SASA-Fc captured on BSA, FcRn 100-800 nM
[2] = biological target: canine FcRn (FcRn large subunit with canine beta-2-microglobulin) (canine); assay: SPR pH 5.9, IgG coupled to C1 chip, 1:1 kinetic fit
[3] = biological target: canine FcRn (FcRn large subunit with canine beta-2-microglobulin) (canine); assay: SPR pH 6.0, IgG coupled to CM5, FcRn 50-800 nM
[4] = biological target: canine FcRn (FcRn large subunit with canine beta-2-microglobulin) (canine); assay: SPR pH 7.4, FcRn coupled at high density, IgG 400 nM
[5] = biological target: canine FcRn (FcRn large subunit with canine beta-2-microglobulin) (canine); assay: SPR pH 5.5, SASA-Fc captured on BSA, FcRn 400 nM

B1: canine IgGB Fc (CH2-CH3) N434H with N-terminal SASA tag (Fc fusion, part only; not given: SASA tag, not shown: another chain or arm of the molecule; small tags and cut ends)
Fc: APEMLGGPSVFIFPPKPKDTLLIARTPEVTCVVVDLDPEDPEVQISWFVDGKQMQTAKTQPREEQFNGTYRVVSVLPIGHQDWLKGKQFTCKVNNKALPSPIERTISKARGQAHQPSVYVLPPSREELSKNTVSLTCLIKDFFPPDIDVEWQSNGQQEPESKYRTTPPQLDEDGSYFLYSKLSVDKSRWQRGDTFICAVMHEALHHHYTQESLSHSPGK
**Q.** What does the source list for B1?
**A.** Kd [1]: 247 nM; koff [1]: 0.102 s⁻¹; kon [1]: 411000 M⁻¹ s⁻¹

B2: anti-NGF canine IgGB antibody, Fc variant A426Y + T286L + Y436H (antibody, part only; not given: anti-NGF variable domains and light chain, not shown: another chain or arm of the molecule)
Fc: APEMLGGPSVFIFPPKPKDTLLIARTPEVTCVVVDLDPEDPEVQISWFVDGKQMQLAKTQPREEQFNGTYRVVSVLPIGHQDWLKGKQFTCKVNNKALPSPIERTISKARGQAHQPSVYVLPPSREELSKNTVSLTCLIKDFFPPDIDVEWQSNGQQEPESKYRTTPPQLDEDGSYFLYSKLSVDKSRWQRGDTFICYVMHEALHNHHTQESLSHSPGK
**Q.** How did the Kd [2] turn out when B2 was run?
**A.** 7.26 nM

**Q.** What about the koff [2] of the same binder?
**A.** 0.0412 s⁻¹

**Q.** And the kon [2]?
**A.** 5.67e+06 M⁻¹ s⁻¹

B3: anti-NGF canine IgGB antibody, Fc variant A426Y + Y436H (antibody, part only; not given: anti-NGF variable domains and light chain, not shown: another chain or arm of the molecule; small tags and cut ends)
Fc: APEMLGGPSVFIFPPKPKDTLLIARTPEVTCVVVDLDPEDPEVQISWFVDGKQMQTAKTQPREEQFNGTYRVVSVLPIGHQDWLKGKQFTCKVNNKALPSPIERTISKARGQAHQPSVYVLPPSREELSKNTVSLTCLIKDFFPPDIDVEWQSNGQQEPESKYRTTPPQLDEDGSYFLYSKLSVDKSRWQRGDTFICYVMHEALHNHHTQESLSHSPGK
**Q.** Which results are given for B3?
**A.** Kd [3]: 507 nM; koff [3]: 0.0777 s⁻¹; kon [3]: 153000 M⁻¹ s⁻¹; Kd [2]: 57.7 nM; koff [2]: 0.0608 s⁻¹; kon [2]: 1.06e+06 M⁻¹ s⁻¹

B4: anti-NGF canine IgGB antibody, Fc variant A426Y + N434R (antibody, part only; not given: anti-NGF variable domains and light chain, not shown: another chain or arm of the molecule; small tags and cut ends)
Fc: APEMLGGPSVFIFPPKPKDTLLIARTPEVTCVVVDLDPEDPEVQISWFVDGKQMQTAKTQPREEQFNGTYRVVSVLPIGHQDWLKGKQFTCKVNNKALPSPIERTISKARGQAHQPSVYVLPPSREELSKNTVSLTCLIKDFFPPDIDVEWQSNGQQEPESKYRTTPPQLDEDGSYFLYSKLSVDKSRWQRGDTFICYVMHEALHRHYTQESLSHSPGK
**Q.** B4 was tested. Which Kd [3] did it give?
**A.** 288 nM

**Q.** What about the koff [3] of the same binder?
**A.** 0.0591 s⁻¹

**Q.** What about the kon [3] of the same binder?
**A.** 206000 M⁻¹ s⁻¹

**Q.** And the Kd [4]?
**A.** 129 nM

B5: canine IgGB Fc (CH2-CH3) D378A with N-terminal SASA tag (Fc fusion, part only; not given: SASA tag, not shown: another chain or arm of the molecule; small tags and cut ends)
Fc: APEMLGGPSVFIFPPKPKDTLLIARTPEVTCVVVDLDPEDPEVQISWFVDGKQMQTAKTQPREEQFNGTYRVVSVLPIGHQDWLKGKQFTCKVNNKALPSPIERTISKARGQAHQPSVYVLPPSREELSKNTVSLTCLIKDFFPPDIAVEWQSNGQQEPESKYRTTPPQLDEDGSYFLYSKLSVDKSRWQRGDTFICAVMHEALHNHYTQESLSHSPGK
**Q.** How did the Kd [5] turn out when B5 was run?
**A.** 673 nM and 592 nM

**Q.** What about the WT KD Avg/Variant KD [5] of the same binder?
**A.** 0.84 and 0.96

**Q.** And the koff [5]?
**A.** 0.183 s⁻¹ and 0.181 s⁻¹

**Q.** And the kon [5]?
**A.** 272000 M⁻¹ s⁻¹ and 306000 M⁻¹ s⁻¹

B6: canine IgGB Fc (CH2-CH3) Q311A with N-terminal SASA tag (Fc fusion, part only; not given: SASA tag, not shown: another chain or arm of the molecule; small tags and cut ends)
Fc: APEMLGGPSVFIFPPKPKDTLLIARTPEVTCVVVDLDPEDPEVQISWFVDGKQMQTAKTQPREEQFNGTYRVVSVLPIGHADWLKGKQFTCKVNNKALPSPIERTISKARGQAHQPSVYVLPPSREELSKNTVSLTCLIKDFFPPDIDVEWQSNGQQEPESKYRTTPPQLDEDGSYFLYSKLSVDKSRWQRGDTFICAVMHEALHNHYTQESLSHSPGK
**Q.** How did the Kd [5] turn out when B6 was run?
**A.** 368 nM and 370 nM

**Q.** What about the WT KD Avg/Variant KD [5] of the same binder?
**A.** 1.54 and 1.53

**Q.** And the koff [5]?
**A.** 0.894 s⁻¹ and 0.496 s⁻¹

**Q.** What about the kon [5] of the same binder?
**A.** 2.43e+06 M⁻¹ s⁻¹ and 1.34e+06 M⁻¹ s⁻¹

B7: canine IgGB Fc (CH2-CH3) K315A with N-terminal SASA tag (Fc fusion, part only; not given: SASA tag, not shown: another chain or arm of the molecule; small tags and cut ends)
Fc: APEMLGGPSVFIFPPKPKDTLLIARTPEVTCVVVDLDPEDPEVQISWFVDGKQMQTAKTQPREEQFNGTYRVVSVLPIGHQDWLAGKQFTCKVNNKALPSPIERTISKARGQAHQPSVYVLPPSREELSKNTVSLTCLIKDFFPPDIDVEWQSNGQQEPESKYRTTPPQLDEDGSYFLYSKLSVDKSRWQRGDTFICAVMHEALHNHYTQESLSHSPGK
**Q.** B7 was tested. Which Kd [5] did it give?
**A.** 422 nM and 548 nM

**Q.** And the WT KD Avg/Variant KD [5]?
**A.** 1.34 and 1.03

**Q.** And the koff [5]?
**A.** 0.134 s⁻¹

B8: anti-NGF canine IgGB antibody, Fc variant A426Y (antibody, part only; not given: Anti-NGF variable domains, not shown: another chain or arm of the molecule; small tags and cut ends)
Fc: APEMLGGPSVFIFPPKPKDTLLIARTPEVTCVVVDLDPEDPEVQISWFVDGKQMQTAKTQPREEQFNGTYRVVSVLPIGHQDWLKGKQFTCKVNNKALPSPIERTISKARGQAHQPSVYVLPPSREELSKNTVSLTCLIKDFFPPDIDVEWQSNGQQEPESKYRTTPPQLDEDGSYFLYSKLSVDKSRWQRGDTFICYVMHEALHNHYTQESLSHSPGK
**Q.** For B8, which Kd [3] is on record?
**A.** 1130 nM

**Q.** What about the koff [3] of the same binder?
**A.** 0.134 s⁻¹

**Q.** And the kon [3]?
**A.** 119000 M⁻¹ s⁻¹

**Q.** And the Kd [2]?
**A.** 129 nM

**Q.** What about the koff [2] of the same binder?
**A.** 0.113 s⁻¹

**Q.** What about the kon [2] of the same binder?
**A.** 878000 M⁻¹ s⁻¹

B9: anti-NGF canine IgGB antibody, Fc variant N434R (antibody, part only; not given: Anti-NGF variable domains, not shown: another chain or arm of the molecule)
Fc: APEMLGGPSVFIFPPKPKDTLLIARTPEVTCVVVDLDPEDPEVQISWFVDGKQMQTAKTQPREEQFNGTYRVVSVLPIGHQDWLKGKQFTCKVNNKALPSPIERTISKARGQAHQPSVYVLPPSREELSKNTVSLTCLIKDFFPPDIDVEWQSNGQQEPESKYRTTPPQLDEDGSYFLYSKLSVDKSRWQRGDTFICAVMHEALHRHYTQESLSHSPGK
**Q.** With B9 as the binder, how does the Kd [3] read?
**A.** 497 nM

**Q.** What about the koff [3] of the same binder?
**A.** 0.107 s⁻¹

**Q.** And the kon [3]?
**A.** 216000 M⁻¹ s⁻¹

**Q.** What about the Kd [4] of the same binder?
**A.** 234 nM

**Q.** What about the kon [4] of the same binder?
**A.** 8.25e+08 M⁻¹ s⁻¹

B10: anti-NGF canine IgGB antibody, Fc variant A426H + Y436H (antibody, part only; not given: anti-NGF variable domains and light chain, not shown: another chain or arm of the molecule; small tags and cut ends)
Fc: APEMLGGPSVFIFPPKPKDTLLIARTPEVTCVVVDLDPEDPEVQISWFVDGKQMQTAKTQPREEQFNGTYRVVSVLPIGHQDWLKGKQFTCKVNNKALPSPIERTISKARGQAHQPSVYVLPPSREELSKNTVSLTCLIKDFFPPDIDVEWQSNGQQEPESKYRTTPPQLDEDGSYFLYSKLSVDKSRWQRGDTFICHVMHEALHNHHTQESLSHSPGK
**Q.** Which Kd [3] does the source give for B10 here?
**A.** 2270 nM

**Q.** What about the koff [3] of the same binder?
**A.** 0.202 s⁻¹

**Q.** And the kon [3]?
**A.** 88700 M⁻¹ s⁻¹

**Q.** And the Kd [2]?
**A.** 161 nM

**Q.** What about the koff [2] of the same binder?
**A.** 0.13 s⁻¹

**Q.** And the kon [2]?
**A.** 808000 M⁻¹ s⁻¹

B11: anti-NGF canine IgGB antibody, Fc variant N434R + T286L (antibody, part only; not given: Anti-NGF variable domains, not shown: another chain or arm of the molecule)
Fc: APEMLGGPSVFIFPPKPKDTLLIARTPEVTCVVVDLDPEDPEVQISWFVDGKQMQLAKTQPREEQFNGTYRVVSVLPIGHQDWLKGKQFTCKVNNKALPSPIERTISKARGQAHQPSVYVLPPSREELSKNTVSLTCLIKDFFPPDIDVEWQSNGQQEPESKYRTTPPQLDEDGSYFLYSKLSVDKSRWQRGDTFICAVMHEALHRHYTQESLSHSPGK
**Q.** What does the source list for B11?
**A.** Kd [3]: 173 nM; koff [3]: 0.031 s⁻¹; kon [3]: 180000 M⁻¹ s⁻¹; Kd [4]: 134 nM

B12: anti-NGF canine IgGB antibody, Fc variant A426H (antibody, part only; not given: Anti-NGF variable domains, not shown: another chain or arm of the molecule; small tags and cut ends)
Fc: APEMLGGPSVFIFPPKPKDTLLIARTPEVTCVVVDLDPEDPEVQISWFVDGKQMQTAKTQPREEQFNGTYRVVSVLPIGHQDWLKGKQFTCKVNNKALPSPIERTISKARGQAHQPSVYVLPPSREELSKNTVSLTCLIKDFFPPDIDVEWQSNGQQEPESKYRTTPPQLDEDGSYFLYSKLSVDKSRWQRGDTFICHVMHEALHNHYTQESLSHSPGK
**Q.** Which Kd [3] does the source give for B12 here?
**A.** 1040 nM

**Q.** What about the koff [3] of the same binder?
**A.** 0.124 s⁻¹

**Q.** What about the kon [3] of the same binder?
**A.** 119000 M⁻¹ s⁻¹

**Q.** What about the Kd [2] of the same binder?
**A.** 115 nM

**Q.** And the koff [2]?
**A.** 0.142 s⁻¹

**Q.** And the kon [2]?
**A.** 1.24e+06 M⁻¹ s⁻¹

B13: anti-NGF canine IgGB antibody, Fc variant N434R + T286Y (antibody, part only; not given: anti-NGF variable domains and light chain, not shown: another chain or arm of the molecule)
Fc: APEMLGGPSVFIFPPKPKDTLLIARTPEVTCVVVDLDPEDPEVQISWFVDGKQMQYAKTQPREEQFNGTYRVVSVLPIGHQDWLKGKQFTCKVNNKALPSPIERTISKARGQAHQPSVYVLPPSREELSKNTVSLTCLIKDFFPPDIDVEWQSNGQQEPESKYRTTPPQLDEDGSYFLYSKLSVDKSRWQRGDTFICAVMHEALHRHYTQESLSHSPGK
**Q.** B13 was tested. Which Kd [3] did it give?
**A.** 93.7 nM

**Q.** And the koff [3]?
**A.** 0.0221 s⁻¹

**Q.** And the kon [3]?
**A.** 236000 M⁻¹ s⁻¹

**Q.** What about the Kd [4] of the same binder?
**A.** 81.2 nM

**Q.** What about the kon [4] of the same binder?
**A.** 3.4e+08 M⁻¹ s⁻¹
